Source: patent US12466859B2, “Desmoglein 2 (DSG2) binding proteins and uses therefor” (UNIVERSITY OF WASHINGTON THROUGH ITS CENTER FOR …, priority 2013, dated 2025)

Assays:
soluble recombinant DSG2 = molecular target: T1, soluble recombinant DSG2 (Homo sapiens, UniProt Q14126); assay: Western blot of dimeric Ad3 fiber knob mutants with soluble recombinant DSG2 as probe; format: binding; conditions: dimerized knob mutants compared to JO-1
T1 construct: Western blot using soluble recombinant DSG2 as a probe; purchased Leinco Technologies, Inc. (St. Louis, MO)
T1 sequence (Q14126 50-609 limits assumed): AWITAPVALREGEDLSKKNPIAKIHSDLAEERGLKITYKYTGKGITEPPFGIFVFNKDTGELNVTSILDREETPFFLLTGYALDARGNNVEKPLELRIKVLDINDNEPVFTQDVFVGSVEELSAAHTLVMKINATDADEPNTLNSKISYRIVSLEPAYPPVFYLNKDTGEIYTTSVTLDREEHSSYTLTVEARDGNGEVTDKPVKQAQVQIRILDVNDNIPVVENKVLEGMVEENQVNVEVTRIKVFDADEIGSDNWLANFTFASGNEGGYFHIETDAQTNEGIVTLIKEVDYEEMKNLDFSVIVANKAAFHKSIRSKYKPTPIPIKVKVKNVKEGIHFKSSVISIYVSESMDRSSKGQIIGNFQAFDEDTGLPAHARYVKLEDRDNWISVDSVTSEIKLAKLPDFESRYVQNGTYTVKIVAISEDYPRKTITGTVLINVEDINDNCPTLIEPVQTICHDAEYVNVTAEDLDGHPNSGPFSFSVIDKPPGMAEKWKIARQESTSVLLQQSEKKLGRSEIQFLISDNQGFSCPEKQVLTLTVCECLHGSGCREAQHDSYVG
From the text: FIG. 1A-1F. Residues found to be critically involved in binding to DSG2. FIG. 1A) Shown are the amino acid sequences of the Ad3 and Ad14p1 fiber knob. Beta sheets present in the Ad3 knob (PDB accession number 1H7Z_A) and Ad14 knob (PDB: 3F0Y_A) are indicated by lines. Black arrows indicate residues within the Ad3 fiber knob which, when mutated individually, ablate or reduce binding to DSG2. […] FIG. 1B) Schematic structure of dimeric Ad3 fiber knob mutants. The fiber knob domain and one shaft motif was fused through a flexible linker to a homodimerizing K-coil domain (41). The proteins are self-dimerizing and can be purified by His-Ni-NTA affinity chromatography. FIG. 1C-FIG. 1F) Analysis of binding of dimeric Ad3 fiber knob mutants to soluble DSG2. FIG. 1C and FIG. 1D) Coomassie staining. 10 μg of purified Ad3 fiber knob (unboiled) were loaded per lane. Trimeric forms of the fiber knobs are indicated by an arrow. The gel contained SDS and the loading buffer containing DTT, which caused the disassembly of dimers of trimeric fiber knobs as previously reported (41). FIG. 1E and FIG. 1F): Western blot using soluble recombinant DSG2 as a probe, followed by anti-DSG2-mAb and anti-mouse IgG-HRP. For comparison, JO-1 (0.5 μg/lane) is shown. The Western blots were scanned and signals were quantified.
Western Blot: Mini-PROTEAN precast gels (BIO-RAD, Hercules, CA) with 4-15% gradient polyacrylamide were used. A total of 1 μg protein mixed with 2× loading buffer (10 mM Tris-HCl, pH6.8, 200 mM DTT, 4% SDS, 20% glycerol, 0.2% bromophenol blue) was loaded per lane. Samples were either boiled (B) for 5 min or loaded unboiled (UB). The following running buffer was used: 25 mM Tris, pH8.3, 0.192 M glycine, 0.1% SDS. After electrophoresis, proteins were transferred to nitrocellulose and incubated with recombinant human DSG2 protein and anti-DSG2 antibodies as described previously (42). The Western blots were scanned and quantified using the ImageJ 1.32 software (National Institutes of Health, Bethesda, MD). JO-1 band intensity was set as 100%. […]

DSG2 = molecular target: T2, DSG2 (Homo sapiens, UniProt Q14126); assay: Surface plasmon resonance of Ad3 fiber knobs on immobilized DSG2; format: binding; conditions: affinity to DSG2
T2 construct: Western blot using soluble recombinant DSG2 as a probe; purchased Leinco Technologies, Inc. (St. Louis, MO)
T2 sequence (Q14126 50-609 limits assumed): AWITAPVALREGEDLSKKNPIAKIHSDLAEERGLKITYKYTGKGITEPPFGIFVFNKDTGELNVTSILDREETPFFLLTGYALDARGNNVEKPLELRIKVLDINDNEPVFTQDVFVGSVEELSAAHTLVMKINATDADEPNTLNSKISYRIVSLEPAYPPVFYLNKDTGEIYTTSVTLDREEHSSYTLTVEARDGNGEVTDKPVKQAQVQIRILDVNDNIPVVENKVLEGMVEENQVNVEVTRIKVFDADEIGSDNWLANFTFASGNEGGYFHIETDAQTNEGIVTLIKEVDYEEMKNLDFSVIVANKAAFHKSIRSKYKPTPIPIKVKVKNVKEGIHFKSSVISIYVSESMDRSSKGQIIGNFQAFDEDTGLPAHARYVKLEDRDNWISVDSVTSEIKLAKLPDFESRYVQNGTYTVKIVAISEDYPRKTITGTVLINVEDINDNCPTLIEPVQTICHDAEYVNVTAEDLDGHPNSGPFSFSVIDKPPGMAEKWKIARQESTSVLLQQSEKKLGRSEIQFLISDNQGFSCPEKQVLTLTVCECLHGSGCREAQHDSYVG
Protocol: FIG. 7A-7B. SPR analysis of non-dimerized Ad3 fiber knob interactions with DSG2. FIG. 7A) DSG2 was immobilized on sensorchips, and background was automatically subtracted from the control flow cell. The Ad3 fiber knobs (w/o dimerization domain: “noDD”) were injected for 3 minutes at 2.5 μg/ml followed by a 2.5 minutes dissociation period. FIG. 7B) Summary of SPR data. […] The extracted data are resumed in the table. Wt=Ad3 fiber knob without mutations FIG. 8A-8G. Electron microscopy and 3D structure of Ad3 fiber knob mutant JO-2.
Surface Plasmon Resonance: Acquisitions were done on a BIAcore 3000 instrument. HBS-N (GE-Healthcare, Pittsburgh, PA) supplemented with 2 mM CaCl2) was used as running buffer in all experiments at a flow rate of 5 [l/min. Immobilization on CM4 sensorchip (BIAcore) was performed using DSG2 at 10 μg/ml diluted in 10 mM Acetate buffer pH 4.5 injected for 10 minutes on ethyl(dimethylaminopropyl) carbodiimide (EDC)/N-Hydroxysuccinimide (NHS) activated flow-cell. A control flow-cell was activated by (EDC/NHS) and inactivated by ethanolamine. Different concentrations of Ad3 fiber knob proteins were injected for 3 minutes association followed by 2.5 minutes dissociation time, and the signal was automatically subtracted from the background of the ethanolamine deactivated EDC-NHS flow cell. Kinetic and affinity constants were calculated using the BIAeval software.

B1: D261N (protein)
chain: MKVSALKEKVSALKEKVSALKEKVSALKEKVSALKEGSGGGSGGGSGGGSNSIALKNNTLWTGPKPEANCIIEYGKQNPDSKLTLILVKNGGIVNGYVTLMGASDYVNTLFKNKNVSINVELYFDATGHILPDSSSLKTDLELKYKQTADFSARGFMPSTTAYPFVLPNAGTHNENYIFGQCYYKASNGALFPLEVTVMLNKRLPDSRTSYVMTFLWSLNAGLAPETTQATLITSPFTFSYIREDD
DSG2 binding in Western blot, in words (soluble recombinant DSG2): almost completely ablated

B2: JO-4 (protein)
chain: MKVSALKEKVSALKEKVSALKEKVSALKEKVSALKEGSGGGSGGGSGGGSNSIALKNNTLWTGPKPEANCIIEYGKQNPDSKLTLILVKNGGIVNGYVTLMGASDYVNTLFKNKNVSINVELYFDATGHILPDSSSLKTDLELKYKQTADFSARGFMPSTTAYPFVLPNAGTHNENFIFGQCYYKASDGALFPLEVTVMLNKRLPDSRTSYVMTFLWSLNAGLAPETTQATLITSPFTFSYIREDD
Kd (DSG2): 11.4 nM
